Experimental data: patent US20250333506A1 (NEW YORK UNIVERSITY, published 2025)
Residue numbers refer to the chain shown, from its start. Where two headings read alike, the source gives them in different places. Each block holds one binder with its values, some of them ahead of it.

Columns and labels:
Cyno D2 [1] = biological target: T1, Cyno D2 (biotinylated (AviTag)); test: bead binding assay: biotinylated TCR-Fc on streptavidin beads, IgG titrated, flow cytometry
T1 construct: also called cynomolgus Gamma/Delta2; Cyno D2/G
T1 delta chain: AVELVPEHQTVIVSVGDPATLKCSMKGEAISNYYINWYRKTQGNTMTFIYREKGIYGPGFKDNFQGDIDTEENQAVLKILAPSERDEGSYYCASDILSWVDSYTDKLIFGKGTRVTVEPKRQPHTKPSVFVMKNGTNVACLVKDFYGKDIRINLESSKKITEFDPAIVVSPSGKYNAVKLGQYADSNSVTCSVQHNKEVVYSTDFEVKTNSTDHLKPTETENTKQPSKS
T1 gamma chain: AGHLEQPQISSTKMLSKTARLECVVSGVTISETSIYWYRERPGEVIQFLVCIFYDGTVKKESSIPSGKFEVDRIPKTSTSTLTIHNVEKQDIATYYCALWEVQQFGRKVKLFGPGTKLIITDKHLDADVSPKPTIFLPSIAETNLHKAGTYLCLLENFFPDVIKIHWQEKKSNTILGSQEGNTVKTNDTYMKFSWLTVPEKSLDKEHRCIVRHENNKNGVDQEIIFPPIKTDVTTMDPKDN

[2] = biological target: T2, cynomolgus Gamma/Delta1A TCR-Fc fusion protein (cynomolgus monkey, biotinylated in vitro with recombinant BirA (AviTag)); test: bead binding assay (TCR-Fc on streptavidin beads, IgG titrated, flow cytometry); apparent KD
T2 construct: First chain = delta, second = gamma; also called Cyno D1; cyno D1; not shown: Fc portion of mouse IgG, then AviTag and His6 tag at the C-terminus; Fc portion of mouse IgG

[3] = biological target: T3, cell surface-expressed δ1-γ4 TCR on J.RT3-T3.5 Jurkat cells; test: flow cytometry titration on the D1/G4 TCR Cell Line (DP10 Hi), transduced J.RT3-T3.5 Jurkat cells
T3 construct: whole, on cells; also called Delta1 and gamma 4; delta1/gamma-4

[4] = biological target: T4, cell surface-expressed δ1γ2 TCR on J.RT3-T3.5 Jurkat cells; test: flow cytometry titration on the D1/G2 TCR Cell Line (9-10 Hi), transduced J.RT3-T3.5 Jurkat cells
T4 construct: whole, on cells; Cells were stained with anti-human reagents; species of the transduced chains is not restated; also called Delta1 and gamma 2

[5] = biological target: T5, cynomolgus monkey Delta1 Fc fusion protein (Delta1 clone not stated); test: bio-layer interferometry (Octet), biotinylated receptor on streptavidin sensor tips, antibody in solution; KD Error 1.33e-012
T5 construct: also called monkey (cyno) delta-1 chain; monkey Delta1 receptors

[6] = biological target: T6, cell surface-expressed δ1-γ5 TCR on J.RT3-T3.5 Jurkat cells; test: flow cytometry titration on the D1/G5 TCR Cell Line (AB Hi), transduced J.RT3-T3.5 Jurkat cells
T6 construct: whole, on cells; also called Delta1 and gamma 5

[7] = biological target: T2, cynomolgus Gamma/Delta1A TCR-Fc fusion …; test: bead binding assay by the table's title (paragraph 456 gives the same value for Octet BLI, FIG. 22B); apparent KD; apparent KD, IgG format, bead binding assay; measured once
[8] = biological target: T7, cell surface-expressed δ1-γ8 TCR on J.RT3-T3.5 Jurkat cells; test: flow cytometry titration on the D1/G8 TCR Cell Line (9-2 Hi), transduced J.RT3-T3.5 Jurkat cells
T7 construct: whole, on cells; also called Delta1 and gamma 8

[9] = biological target: T8, human Delta1 TCR (Fc fusion protein, Delta1 clone and gamma chain not stated); test: bio-layer interferometry (Octet), biotinylated receptor on streptavidin sensor tips, antibody in solution; KD Error 1.14e-012
T8 construct: also called Human Delta1 Fc fusion protein; human delta-1 chain

[10] = biological target: T9, cell surface-expressed δ1-γ9 TCR on J.RT3-T3.5 Jurkat cells; test: flow cytometry titration on the D1/G9 TCR Cell Line (JR2 Hi), transduced J.RT3-T3.5 Jurkat cells
T9 construct: whole, on cells; also called Delta1/Gamma9 TCR on the surface; delta1/gamma-9

[11] = biological target: T2, cynomolgus Gamma/Delta1A TCR-Fc fusion …; test: bead binding assay: biotinylated TCR-Fc on streptavidin beads, IgG titrated, flow cytometry
[12] = biological target: T10, cell surface-expressed δ1γ3 TCR on J.RT3-T3.5 Jurkat cells; test: flow cytometry titration on the D1/G3 TCR Cell Line (16-3 Hi), transduced J.RT3-T3.5 Jurkat cells
T10 construct: whole, on cells; also called Delta1 and gamma 3

[13] = biological target: T8, human Delta1 TCR (Fc fusion protein, …); test: bead binding titration, flow cytometry (MFI against antibody concentration)
[14] = biological target: T2, cynomolgus Gamma/Delta1A TCR-Fc fusion …; test: bead binding assay (TCR-Fc on streptavidin beads, IgG titrated, flow cytometry); apparent KD, s.d. of triplicates
Cyno D2 [15] = biological target: T1, Cyno D2; test: bead binding assay: biotinylated TCR-Fc on streptavidin beads, IgG titrated, flow cytometry
Cyno D2 [16] = biological target: T1, Cyno D2; test: as above

- binding result (Cyno D2 [1]): no binding (tested: 100 nM)
- Kd [2]: 1.16 nM
B1: Delta1-24 (antibody, V domains shown)
VH: EVQLVESGGGLVQPGGSLRLSCAASGFTVSSSSIHWVRQAPGKGLEWVASIYSSSGYTYYADSVKGRFTISADTSKNTAYLQMNSLRAEDTAVYYCARDPGSYYWYYSGSAYEGYGLDYWGQGTLVTVSS
VL: DIQMTQSPSSLSASVGDRVTITCRASQSVSSAVAWYQQKPGKAPKLLIYAASSLQSGVPSRFSGSRSGTDFTLTISSLQPEDFATYYCQQSNRSYPPLTFGQGTKVEIKR
notes: Tested in the human IgG format

- EC50 (read off the curve) [3]: ~9 nM
- EC50 (read off the curve) [4]: ~7 nM
- Kd [5]: 0.285 nM
- EC50 (read off the curve) [6]: ~4 nM
- Kd [7]: 0.28 nM
- EC50 (read off the curve) [8]: ~6 nM
- Kd [9]: 0.231 nM
- EC50 (read off the curve) [10]: ~10 nM
- EC50 (read off the curve) [11]: ~2 nM
- EC50 (read off the curve) [12]: ~6 nM
- EC50 (read off the curve) [13]: ~1 nM
B2: Delta1-39 (antibody, V domains shown)
VH: B1 VH with V29F, S30T, S31A, S32N, S33D
VL: B1 VL with S91Q, N92S, R93K, S94Y, Y95P, P96F, P97L, L98I
notes: Tested in the human IgG format; also called anti-Delta1-39; Delta-39

- Kd [14]: 0.26 nM
- binding result (Cyno D2 [15]): no binding (tested: 100 nM)
B3: Delta1-26 (antibody, V domains shown)
VH: B1 VH
VL: B1 VL with S91Q, N92Q, S94Y, Y95S, P96Y, P97L, L98I
notes: as for B1

- Kd [14]: 0.48 nM
- binding result (Cyno D2 [16]): no binding (tested: 100 nM)
B4: Delta1-25 (antibody, V domains shown)
VH: B1 VH
VL: B1 VL with S91I, N92G, S94R, Y95S, P96S, P97L, L98I
notes: as for B1
